Paper PMC5696030

Assays:
Experiment in all cases: AUC
Gly189Ala NFU1 (human) = Gly189Ala NFU1 (human) (UniProt Q9UMS0)
Gly189Arg NFU1 (human) = Gly189Arg NFU1 (human) (UniProt Q9UMS0)
Gly189Lys NFU1 (human) = Gly189Lys NFU1 (human) (UniProt Q9UMS0)
[1] = target: native human NFU1 (human) (UniProt Q9UMS0)

Gly189Ala NFU1 (from UniProt Q9UMS0 10-254) (natural protein)
percent dimer (Gly189Ala NFU1 (human)): 3%
percent dimer with 1 mM TCEP (Gly189Ala NFU1 (human)): 3%
percent monomer (Gly189Ala NFU1 (human)): 95%
percent monomer with 1 mM TCEP (Gly189Ala NFU1 (human)): 95%
stoichiometry N (Gly189Ala NFU1 (human)): 2

Gly189Arg NFU1 (from UniProt Q9UMS0 10-254) (natural protein)
percent dimer (Gly189Arg NFU1 (human)): 4%
percent dimer with 1 mM TCEP (Gly189Arg NFU1 (human)): 4%
percent monomer (Gly189Arg NFU1 (human)): 95%
percent monomer with 1 mM TCEP (Gly189Arg NFU1 (human)): 94%
stoichiometry N (Gly189Arg NFU1 (human)): 2

Gly189Lys NFU1 (from UniProt Q9UMS0 10-254) (natural protein)
percent dimer (Gly189Lys NFU1 (human)): 5%
percent dimer with 1 mM TCEP (Gly189Lys NFU1 (human)): 6%
percent monomer with 1 mM TCEP (Gly189Lys NFU1 (human)): 89%
stoichiometry N (Gly189Lys NFU1 (human)): 2

native human NFU1 (from UniProt Q9UMS0 10-254) (natural protein)
percent dimer [1]: 52%
percent dimer with 1 mM TCEP [1]: 44%
percent monomer [1]: 45%
percent monomer with 1 mM TCEP [1]: 44%
